Measurements: patent US20240376170A1 (BRIGHT PEAK THERAPEUTICS, published 2024)
Bridges are numbered along the chain shown (N, C = ends). Primed or numbered codes have the meaning given here. [ ]: non-standard residue; d: D form. 8x polyethylene glycol‑amino = O-(8x polyethylene glycol-amino)-tyrosine, SITE 45; 9x polyethylene glycol‑azido = O-(9x polyethylene glycol-azido)-tyrosine, SITE 42; Ygp = O-(8x polyethylene glycol-amino)-tyrosine (Tyr, amino-capped PEG8); Yn3 = O-(9x polyethylene glycol-azido)-tyrosine (Tyr, azide-capped PEG9); Ygp″ = O-(8x polyethylene glycol-amino)-tyrosine; Yn3″ = O-(9x polyethylene glycol-azido)-tyrosine; PEG16′ = 16x polyethylene glycol; PEG24′ = 24x polyethylene glycol; Ygp(6) = Tyr, amino-capped PEG8; Yn3(6) = Tyr, azide-capped PEG9; PEG4′ = 4x polyethylene glycol; PEG9′ = 9x polyethylene glycol; hSer = N[C@@H](CCO)C(=O)O; Nle = CCCC[C@H](N)C(=O)O

T1: IL-2 receptor βγ complex (human, UniProt P14784 27-551; P31785 23-369)
T1 sequence (looked up) 1: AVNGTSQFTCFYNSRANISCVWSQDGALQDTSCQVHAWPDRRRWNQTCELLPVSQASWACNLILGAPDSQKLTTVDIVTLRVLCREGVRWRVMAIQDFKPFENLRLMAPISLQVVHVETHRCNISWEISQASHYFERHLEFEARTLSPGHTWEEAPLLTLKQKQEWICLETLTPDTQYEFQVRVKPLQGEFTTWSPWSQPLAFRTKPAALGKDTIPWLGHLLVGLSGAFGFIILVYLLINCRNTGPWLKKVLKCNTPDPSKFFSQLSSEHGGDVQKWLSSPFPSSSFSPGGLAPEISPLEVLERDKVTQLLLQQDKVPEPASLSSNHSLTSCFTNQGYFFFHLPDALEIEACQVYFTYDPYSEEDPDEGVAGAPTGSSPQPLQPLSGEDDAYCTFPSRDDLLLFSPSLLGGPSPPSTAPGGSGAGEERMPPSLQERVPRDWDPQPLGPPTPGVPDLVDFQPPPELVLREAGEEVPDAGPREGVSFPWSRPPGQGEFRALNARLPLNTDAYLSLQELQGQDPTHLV
T1 sequence (looked up) 2: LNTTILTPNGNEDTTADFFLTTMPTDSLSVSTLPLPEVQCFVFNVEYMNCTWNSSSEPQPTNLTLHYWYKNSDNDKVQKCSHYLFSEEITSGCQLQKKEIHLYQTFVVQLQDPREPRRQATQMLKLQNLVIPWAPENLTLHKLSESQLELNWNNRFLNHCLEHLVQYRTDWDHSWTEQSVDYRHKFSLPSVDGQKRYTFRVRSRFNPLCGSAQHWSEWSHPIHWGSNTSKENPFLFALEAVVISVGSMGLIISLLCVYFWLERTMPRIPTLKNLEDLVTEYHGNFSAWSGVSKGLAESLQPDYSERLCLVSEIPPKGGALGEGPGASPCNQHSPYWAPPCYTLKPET

T2: IL-2Rβγ on HEK-Blue IL-2Rβγ reporter cells (InvivoGen) (UniProt P14784 27-551; P31785 23-369, limits assumed)
T2 sequence (looked up) 1: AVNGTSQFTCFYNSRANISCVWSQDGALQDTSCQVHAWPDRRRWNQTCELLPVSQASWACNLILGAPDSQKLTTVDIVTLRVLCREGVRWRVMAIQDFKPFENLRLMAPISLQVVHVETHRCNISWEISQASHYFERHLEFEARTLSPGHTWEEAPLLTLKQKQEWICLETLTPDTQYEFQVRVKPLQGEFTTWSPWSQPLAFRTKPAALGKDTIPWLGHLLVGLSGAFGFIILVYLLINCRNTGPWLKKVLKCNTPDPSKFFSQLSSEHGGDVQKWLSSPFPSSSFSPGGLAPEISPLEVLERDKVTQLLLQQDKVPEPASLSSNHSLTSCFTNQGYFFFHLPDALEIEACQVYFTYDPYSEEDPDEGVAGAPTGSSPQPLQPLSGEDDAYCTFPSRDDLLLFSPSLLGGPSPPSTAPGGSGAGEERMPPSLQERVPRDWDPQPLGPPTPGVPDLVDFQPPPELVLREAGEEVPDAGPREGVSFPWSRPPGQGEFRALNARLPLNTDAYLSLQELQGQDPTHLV
T2 sequence (looked up) 2: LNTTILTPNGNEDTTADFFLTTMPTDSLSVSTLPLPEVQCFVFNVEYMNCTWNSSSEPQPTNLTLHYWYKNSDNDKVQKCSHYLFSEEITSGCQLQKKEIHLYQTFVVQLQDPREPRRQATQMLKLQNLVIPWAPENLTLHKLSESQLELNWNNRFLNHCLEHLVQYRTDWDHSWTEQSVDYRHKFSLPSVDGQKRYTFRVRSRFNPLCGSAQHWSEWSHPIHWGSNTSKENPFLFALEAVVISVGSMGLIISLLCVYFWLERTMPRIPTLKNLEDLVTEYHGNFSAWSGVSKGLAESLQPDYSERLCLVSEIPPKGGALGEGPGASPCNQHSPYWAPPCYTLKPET


Target: T1, IL-2 receptor βγ complex
Experiment: cell-based or functional assay

Binder | Average EC50, pSTAT5 Assay (T cells) [nM]
CMP-152 (ligand, linker N-38 via PEG9‑glutaryl) PLGLAGAPTSSSTKKTQLQLEHLLLDLQ[Nle]ILNGINNYKNPKLTR[Nle]L[hSer][Yn3″]KF[Ygp″][Nle]PKKATELKHLQCLEEELKPLEEVL[hSer]LAQSKNFHLRPRDLISNINVIVLELKGSETTF[hSer]CEYADETATIVEFLNRWITFSQSIISTLT | 16.1
CMP-139, MMP2 cleaved molecule (ligand, ends and bridges not checked; also: cleaved by MMP2, cleavage product not defined, N-terminal PEG16 link and Glu29 side-chain attachment of the cleavable peptide not defined) APTSSSTKKTQLQLEHLLLDLQ[Nle]ILNGIENYKNPKLTR[Nle]L[hSer][Yn3]KF[Ygp][Nle]PKKATELKHLQCLEEELKPLEEVL[hSer]LAQSKNFHLRPRDLISNINVIVLELKGSETTF[hSer]CEYADETATIVEFLNRWITFSQSIISTLT | 3.61
CMP-139 (ligand, bridge (positions not given here); not fully specified (bridges); ends not checked) [PEG16′]SGGPGPAGMKGLPGS[PEG16′]APTSSSTKKTQLQLEHLLLDLQ[Nle]ILNGIENYKNPKLTR[Nle]L[hSer][Yn3]KF[Ygp][Nle]PKKATELKHLQCLEEELKPLEEVL[hSer]LAQSKNFHLRPRDLISNINVIVLELKGSETTF[hSer]CEYADETATIVEFLNRWITFSQSIISTLT | 21.3
CMP-137, MMP2 cleaved molecule (ligand, ends and bridges not checked; also: cleaved by MMP2, cleavage product not defined, N-terminal PEG24 link and Glu29 side-chain attachment of the cleavable peptide not defined) APTSSSTKKTQLQLEHLLLDLQ[Nle]ILNGIENYKNPKLTR[Nle]L[hSer][Yn3]KF[Ygp][Nle]PKKATELKHLQCLEEELKPLEEVL[hSer]LAQSKNFHLRPRDLISNINVIVLELKGSETTF[hSer]CEYADETATIVEFLNRWITFSQSIISTLT | 4.09
CMP-154 (ligand, linker N-35 via PEG9′) PLGLAGAPTSSSTKKTQLQLEHLLLDLQ[Nle]ILNGIENYKNPKLTR[Nle]L[hSer][Yn3″]KF[Ygp″][Nle]PKKATELKHLQCLEEELKPLEEVL[hSer]LAQSKNFHLRPRDLISNINVIVLELKGSETTF[hSer]CEYADETATIVEFLNRWITFSQSIISTLT | 24.7
CMP-152, MMP2 cleaved molecule (ligand, not fully specified (bridges); also: MMP2 cleaved, site not given here) PLGLAGAPTSSSTKKTQLQLEHLLLDLQ[Nle]ILNGINNYKNPKLTR[Nle]L[hSer][Yn3″]KF[Ygp″][Nle]PKKATELKHLQCLEEELKPLEEVL[hSer]LAQSKNFHLRPRDLISNINVIVLELKGSETTF[hSer]CEYADETATIVEFLNRWITFSQSIISTLT | 2.95
CMP-154, MMP2 cleaved molecule (ligand, not fully specified (bridges); also: MMP2 cleaved, site not given here) PLGLAGAPTSSSTKKTQLQLEHLLLDLQ[Nle]ILNGIENYKNPKLTR[Nle]L[hSer][Yn3″]KF[Ygp″][Nle]PKKATELKHLQCLEEELKPLEEVL[hSer]LAQSKNFHLRPRDLISNINVIVLELKGSETTF[hSer]CEYADETATIVEFLNRWITFSQSIISTLT | 4.2
CMP-137 (ligand, bridge (positions not given here); not fully specified (bridges); ends not checked) [PEG24′]PLGLAG[PEG24′]APTSSSTKKTQLQLEHLLLDLQ[Nle]ILNGIENYKNPKLTR[Nle]L[hSer][Yn3]KF[Ygp][Nle]PKKATELKHLQCLEEELKPLEEVL[hSer]LAQSKNFHLRPRDLISNINVIVLELKGSETTF[hSer]CEYADETATIVEFLNRWITFSQSIISTLT | 27.1

Target: T2, IL-2Rβγ on HEK-Blue IL-2Rβγ reporter …
Experiment: cell-based or functional assay

Binder | Average EC50, HEK-Blue IL-2R (CD122+, CD132+) Reporter Assay, Matriptase cleaved molecule [nM] | Average EC50, HEK-Blue IL-2R (CD122+, CD132+) Reporter Assay, uPa cleaved molecule [nM] | Average EC50, HEK-Blue IL-2R (CD122+, CD132+) Reporter Assay, MMP2 cleaved molecule [nM] | Average EC50, HEK-Blue IL-2R (CD122+, CD132+) Reporter Assay, intact molecule [nM]
CMP-329, matriptase cleaved (ligand, ends and bridges not checked; also: after matriptase cleavage, remnants of the Lys9–Glu23 peptide linker not given here) APTSSSTKKTQLQLEHLLLDLQEILNGINNYKNPKLTR[Nle]L[hSer][Yn3″]KF[Ygp″][Nle]PKKATELKHLQCLEEELKPLEEVL[hSer]LAQSKNFHLRPRDLISNINVIVLELKGSETTF[hSer]CEYADETATIVEFLNRWITFSQSIISTLT | 1.47 | – | – | –
CMP-321, matriptase cleaved (ligand, not fully specified (bridges)) SGRVQPLVDAPTSSSTKKTQLQLEHLLLDLQEILNGINNYKNPKLTR[Nle]L[hSer][Yn3(6)]KF[Ygp(6)][Nle]PKKATELKHLQCLEEELKPLEEVL[hSer]LAQSKNFHLRPRDLISNINVIVLELKGSETTF[hSer]CEYADETATIVEFLNRWITFSQSIISTLT | 4.22 | – | – | –
CMP-329, uPa cleaved (ligand, ends and bridges not checked; also: uPa-cleaved, cut in the RQRRSVVGG bridge between Lys9 and Glu23, remaining fragments not given here) APTSSSTKKTQLQLEHLLLDLQEILNGINNYKNPKLTR[Nle]L[hSer][Yn3″]KF[Ygp″][Nle]PKKATELKHLQCLEEELKPLEEVL[hSer]LAQSKNFHLRPRDLISNINVIVLELKGSETTF[hSer]CEYADETATIVEFLNRWITFSQSIISTLT | – | 1.41 | – | –
CMP-300, MMP2 cleaved (ligand, ends and bridges not checked; also: MMP2 cleaved, ring opened, cut site and remnants not given here) APTSSSTKKTQLQLEHLLLDLQEILNGINNYKNPKLTR[Nle]L[hSer][Yn3″]KF[Ygp″][Nle]PKKATELKHLQCLEEELKPLEEVL[hSer]LAQSKNFHLRPRDLISNINVIVLELKGSETTF[hSer]CEYADETATIVEFLNRWITFSQSIISTLT | – | – | 0.0094 | –
CMP-330, matriptase cleaved (ligand, not fully specified; also: before the cut Lys9 and Glu23 side chains are bridged by a peptide linker, what remains after the cut not given here) APTSSSTKKTQLQLEHLLLDLQEILNGINNYKNPKLTR[Nle]L[hSer]Y(9x polyethylene glycol‑azido)KFY(8x polyethylene glycol‑amino)[Nle]PKKATELKHLQCLEEELKPLEEVL[hSer]LAQSKNFHLRPRDLISNINVIVLELKGSETTF[hSer]CEYADETATIVEFLNRWITFSQSIISTLT | 2.15 | – | – | –
CMP-300 (ligand, lactam N-31; ends not checked) GPLGLAG[PEG4′]APTSSSTKKTQLQLEHLLLDLQEILNGINNYKNPKLTR[Nle]L[hSer][Yn3″]KF[Ygp″][Nle]PKKATELKHLQCLEEELKPLEEVL[hSer]LAQSKNFHLRPRDLISNINVIVLELKGSETTF[hSer]CEYADETATIVEFLNRWITFSQSIISTLT | – | – | – | 0.711
CMP-330, uPa cleaved (ligand, not fully specified; also: before the cut Lys9 and Glu23 side chains are bridged by a peptide linker, what remains after the cut not given here) APTSSSTKKTQLQLEHLLLDLQEILNGINNYKNPKLTR[Nle]L[hSer]Y(9x polyethylene glycol‑azido)KFY(8x polyethylene glycol‑amino)[Nle]PKKATELKHLQCLEEELKPLEEVL[hSer]LAQSKNFHLRPRDLISNINVIVLELKGSETTF[hSer]CEYADETATIVEFLNRWITFSQSIISTLT | – | 1.73 | – | –
